From IntAct's records for PubMed 17428920

B1: Insulin-induced gene 2 protein (Homo sapiens), Q9Y5U4 (parent)
chain: MAEGETESPGPKKCGPYISSVTSQSVNLMIRGVVLFFIGVFLALVLNLLQIQRNVTLFPPDVIASIFSSAWWVPPCCGTASAVIGLLYPCIDRHLGEPHKFKREWSSVMRCVAVFVGINHASAKVDFDNNIQLSLTLAALSIGLWWTFDRSRSGFGLGVGIAFLATVVTQLLVYNGVYQYTSPDFLYVRSWLPCIFFAGGITMGNIGRQLAMYECKVIAEKSHQE
partner: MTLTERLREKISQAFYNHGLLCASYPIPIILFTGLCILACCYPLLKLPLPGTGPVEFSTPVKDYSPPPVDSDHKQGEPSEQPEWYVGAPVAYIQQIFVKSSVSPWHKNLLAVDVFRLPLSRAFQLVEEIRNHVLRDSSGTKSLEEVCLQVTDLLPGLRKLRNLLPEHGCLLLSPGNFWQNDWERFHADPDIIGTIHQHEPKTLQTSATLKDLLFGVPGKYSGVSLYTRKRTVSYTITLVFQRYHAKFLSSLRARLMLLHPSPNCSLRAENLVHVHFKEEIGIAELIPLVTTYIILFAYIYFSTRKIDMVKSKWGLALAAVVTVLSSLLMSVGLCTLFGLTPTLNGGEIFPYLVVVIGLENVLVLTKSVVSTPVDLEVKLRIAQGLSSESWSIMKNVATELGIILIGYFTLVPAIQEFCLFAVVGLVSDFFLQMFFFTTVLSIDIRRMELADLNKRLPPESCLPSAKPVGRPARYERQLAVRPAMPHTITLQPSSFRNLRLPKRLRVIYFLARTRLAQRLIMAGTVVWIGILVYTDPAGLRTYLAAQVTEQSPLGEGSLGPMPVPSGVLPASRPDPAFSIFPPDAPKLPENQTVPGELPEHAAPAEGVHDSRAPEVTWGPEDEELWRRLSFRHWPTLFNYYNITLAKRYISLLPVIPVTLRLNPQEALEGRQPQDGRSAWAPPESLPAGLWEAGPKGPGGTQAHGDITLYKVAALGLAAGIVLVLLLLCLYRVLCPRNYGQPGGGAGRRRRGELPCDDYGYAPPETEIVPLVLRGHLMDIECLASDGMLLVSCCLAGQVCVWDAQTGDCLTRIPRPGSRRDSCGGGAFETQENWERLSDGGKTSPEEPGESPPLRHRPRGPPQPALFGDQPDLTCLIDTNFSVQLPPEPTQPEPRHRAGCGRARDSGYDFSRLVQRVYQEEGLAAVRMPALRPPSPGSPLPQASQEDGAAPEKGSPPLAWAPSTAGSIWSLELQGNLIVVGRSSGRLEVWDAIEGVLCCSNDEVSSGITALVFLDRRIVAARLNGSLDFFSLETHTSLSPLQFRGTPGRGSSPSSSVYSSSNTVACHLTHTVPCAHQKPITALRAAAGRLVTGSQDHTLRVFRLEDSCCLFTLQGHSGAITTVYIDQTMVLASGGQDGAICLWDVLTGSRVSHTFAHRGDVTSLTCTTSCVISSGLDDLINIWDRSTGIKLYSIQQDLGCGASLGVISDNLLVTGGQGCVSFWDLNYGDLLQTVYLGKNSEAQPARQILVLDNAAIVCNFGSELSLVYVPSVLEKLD

Variants of: B1
Settings: with scap_crigr SCAP
For MAEGETESPGPKKCGPYISSVTSQSVNLMIRGVVLFFIGVFLALVLNLLQIQRNVTLFPPDVIASIFSSAWWVPPCCGTASAVIGLLYPCIDRHLGEPHKFKREWSSVMRCVAVAVGINHASAKVDFDNNIQLSLTLAALSIGLWWTFDRSRSGFGLGVGIAFLATVVTQLLVYNGVYQYTSPDFLYVRSWLPCIFFAGGITMGNIGRQLAMYECKVIAEKSHQE [F115A], the “effect of a mutation on the interaction” value was “disrupting interaction strength”.
For MAEGETESPGPKKCGPYISSVTSQSVNLMIRGVVLFFIGVFLALVLNLLQIQRNVTLFPPDVIASIFSSAWWVPPCCGTASAVIGLLYPCIDRHLGEPHKFKREWSSVMRCVAVFVGINHASAKVDFDNNIQLSLALAALSIGLWWTFDRSRSGFGLGVGIAFLATVVTQLLVYNGVYQYTSPDFLYVRSWLPCIFFAGGITMGNIGRQLAMYECKVIAEKSHQE [T136A], the “effect of a mutation on the interaction” value was “decreasing interaction strength”.
